This data set concerns the molecule itself. The data set can be described thus: cryo-EM structure; single particle cryo-EM of MscS in MSP1 E3D1 nanodiscs, POPC:POPG 4:1; 0.01% fluorinated octyl maltoside added; C7 symmetry in final refinement (the His-tagged sample also processed without symmetry, C1).

B1: E. coli small-conductance mechanosensitive channel MscS with N-terminal 6xHis tag (natural protein, UniProt P0C0S1 1-286, looked up)
chain: MEDLNVVDSINGAGSWLVANQALLLSYAVNIVAALAIIIVGLIIARMISNAVNRLMISRKIDATVADFLSALVRYGIIAFTLIAALGRVGVQTASVIAVLGAAGLAVGLALQGSLSNLAAGVLLVMFRPFRAGEYVDLGGVAGTVLSVQIFSTTMRTADGKIIVIPNGKIIAGNIINFSREPVRRNEFIIGVAYDSDIDQVKQILTNIIQSEDRILKDREMTVRLNELGASSINFVVRVWSNSGDLQNVYWDVLERIKREFDAAGISFPYPQMDVNFKRVKEDKAA
notes: Small-conductance mechanosensitive channel MscS, E. coli, full length; also called 6xHis-MscS-ND; MscS-ND; not shown: His6, N-terminal, kept
One may read the stoichiometry N as the number of molecules, sites or subunits per partner or assembly. For the protein B1, the “stoichiometry N” value worked out at 7.

B2: MscS-Cryst (Δ2–26 MscS) (natural protein, E. coli, UniProt P0C0S1 1-286, looked up)
chain: MYAVNIVAALAIIIVGLIIARMISNAVNRLMISRKIDATVADFLSALVRYGIIAFTLIAALGRVGVQTASVIAVLGAAGLAVGLALQGSLSNLAAGVLLVMFRPFRAGEYVDLGGVAGTVLSVQIFSTTMRTADGKIIVIPNGKIIAGNIINFSREPVRRNEFIIGVAYDSDIDQVKQILTNIIQSEDRILKDREMTVRLNELGASSINFVVRVWSNSGDLQNVYWDVLERIKREFDAAGISFPYPQMDVNFKRVKEDKAA
notes: Small-conductance mechanosensitive channel MscS, E. coli, lacking the N-terminal anchor domain (residues 2-26 removed); The tag is surmised from the vector and from the statement that the purification was the same; also called MscS ∆2–27; MscS ∆1–27; source: E. coli MJF465 (pQE70), purified as the wild type, reconstituted in MSP1 E3D1 nanodiscs (POPC:POPG)
For B2, the binding result is “binds”.

The record behind these values is article PMC7299334, “Molecular basis of force-from-lipids gating in the mechanosensitive channel MscS” (eLife, 2019).
